The chains are these.
B1: YMR094W 38-51 (peptide)
chain: ILYKSNDVELPGKP
B2: YPL147W 673-686 (peptide)
chain: IPSENNIFFIPQKP
B3: YOR001W 149-161 (peptide)
chain: IPLLKEKPNALKP
B4: YNR011C 357-370 (peptide)
chain: ILIGLLKDILPQRP
B5: YOR176W 118-131 (peptide)
chain: ILDKTSPETAPHKP
B6: YKR076W 353-365 (peptide)
chain: INPLGITPLGPKP
B7: YNL102W 567-579 (peptide)
chain: ISLDSPIPENIKP
B8: YGL248W 276-288 (peptide)
chain: ILVESSSPLSSKP
B9: YOR243C 79-92 (peptide)
chain: IHLTDKGFKMPKKP
B10: YDR227W 60-72 (peptide)
chain: IHTSPHQPSDVKP
B11: YHR037W 22-35 (peptide)
chain: IKPPKHIRNEPVKP
B12: YDR280W 60-72 (peptide)
chain: ISSQIAQPYEDRP
B13: YJL004C 4-16 (peptide)
chain: IRRYLRVPNELKP
B14: YLR090W 426-438 (peptide)
chain: IIHTDDLPEGIRP
B15: YGR154C 339-351 (peptide)
chain: INQFGIVPLGPKP
B16: YDL231C 441-453 (peptide)
chain: IPTRENTPSAFKP
B17: YNL206C 123-135 (peptide)
chain: IKMASFLPVPEKP
B18: YJL212C 542-555 (peptide)
chain: ITELISGYMLPLRP
B19: YKL146W 503-515 (peptide)
chain: IQESMKHPKHFRP
B20: YKL005C 358-371 (peptide)
chain: IILENFIVEVPDKP
B21: YDR227W 195-207 (peptide)
chain: INLANEQPVLEKP
B22: YMR259C 332-345 (peptide)
chain: ILTFSTKKSKPIRP
B23: YGR177C 149-162 (peptide)
chain: ISPVIIPLGNPKRP
B24: YGL104C 354-367 (peptide)
chain: ILVSLLIHSLPRKP
B25: YJR024C 135-147 (peptide)
chain: IPSGKVDPVTKKP
B26: YJL166W 24-36 (peptide)
chain: ITSYAVSPYAQKP
B27: YEL055C 74-86 (peptide)
chain: INLAVNMPPGQRP
B28: YOL146W 66-79 (peptide)
chain: IPGLGYLENNPGRP
B29: YCR033W 972-984 (peptide)
chain: INAYSNIPPQQRP
B30: YDL111C 21-33 (peptide)
chain: IRPDGRLPHQFRP
B31: YGL222C 52-64 (peptide)
chain: IPPPQTLPNGQKP
B32: YLR188W 432-445 (peptide)
chain: IVFKNVSFTYPTRP
B33: YDL056W 329-341 (peptide)
chain: ISMIPRYPVTSRP
B34: YGR268C 17-30 (peptide)
chain: IKEEERLQSQPPRP
B35: YDR058C 11-23 (peptide)
chain: IIDSVKVPDSYKP
B36: YLR069C 260-272 (peptide)
chain: IIEKGPVPENLKP
B37: YDR371W 74-87 (peptide)
chain: ISGVYYSNWSPYKP
B38: YLR101C 109-122 (peptide)
chain: IGSFITINIVPWRP
B39: YML053C 112-125 (peptide)
chain: IHYKKNIEISPLKP
B40: YOL008W 136-148 (peptide)
chain: ISKWTIMPHPNRP
B41: YGR002C 424-437 (peptide)
chain: ILAILQELSLPSRP
B42: YIL085C 295-307 (peptide)
chain: ISRWVNFPWDAKP
B43: YNL212W 461-474 (peptide)
chain: ISNLGGKSIDPHKP
B44: YLR453C 47-59 (peptide)
chain: IKKSVSSPKVSKP
B45: YDR409W 265-277 (peptide)
chain: IRGFKSKPGTAKP
B46: YPR171W 226-238 (peptide)
chain: IKPDAVVPERVKP
B47: YOR368W 277-289 (peptide)
chain: IITDTTRPSNNRP
B48: YNR027W 300-312 (peptide)
chain: ILKQDLIPSIGKP
B49: YDR243C 233-246 (peptide)
chain: IPILIKMSRSPPRP
B50: YKL060C 311-324 (peptide)
chain: IMSPVGNPEGPEKP
B51: YJR001W 478-490 (peptide)
chain: IIPIAKTPLNARP
B52: YAL058W 299-311 (peptide)
chain: IPEYILDPNAQKP
B53: YNL247W 569-582 (peptide)
chain: ITKILRIIGFPSRP
B54: YPL057C 39-52 (peptide)
chain: ILEEDLNPDAPPKP

This assay has as its target T1, Abp1 SH3 (ABP1_YEAST), P15891.
T1 chain: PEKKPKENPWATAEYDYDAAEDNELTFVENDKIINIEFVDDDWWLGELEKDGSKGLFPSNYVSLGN
As to the kind of experiment: SPOT array.
B1 registered a normalised SPOT signal, Boehringer light units (BLU); mean over the file's lines of this peptide of 0.
As for B2, the normalised SPOT signal, Boehringer light units (BLU); mean over the file's lines of this peptide came to 79.8.
Then B3, with 2180.
As for B4, the figure is 97.3.
Then B5, with 86.1.
B6: the normalised SPOT signal, Boehringer light units (BLU); mean over the file's lines of this peptide was found to be 9.5.
Then B7, with 95.3.
For the molecule B8, the normalised SPOT signal, Boehringer light units (BLU); mean over the file's lines of this peptide was found to be 52.3.
For the molecule B9, the normalised SPOT signal, Boehringer light units (BLU); mean over the file's lines of this peptide is 508.
As for B10, the figure is 121.
As for B11, the figure is 87.3; as for B12, 43.3.
Then B13, with 105; and B14, with 125.
In turn, B15 came in with a normalised SPOT signal, Boehringer light units (BLU); mean over the file's lines of this peptide of 133.
As to B16, the normalised SPOT signal, Boehringer light units (BLU); mean over the file's lines of this peptide worked out at 204.
B17 showed a normalised SPOT signal, Boehringer light units (BLU); mean over the file's lines of this peptide of 370.
As for B18, the figure is 149; as for B19, 822; as for B20, 57.8.
As to B21, the normalised SPOT signal, Boehringer light units (BLU); mean over the file's lines of this peptide worked out at 105.
Then B22, with 1350.
As for B23, the normalised SPOT signal, Boehringer light units (BLU); mean over the file's lines of this peptide worked out at 90.9.
Then B24, with 176.
Then B25, with 21; and B26, with 90.7; and B27, with 163.
Then B28, with 155.
Take B29: the normalised SPOT signal, Boehringer light units (BLU); mean over the file's lines of this peptide worked out at 84.6.
As for B30, the figure is 1260; as for B31, 57.2; as for B32, 87.
The molecule B33 had a normalised SPOT signal, Boehringer light units (BLU); mean over the file's lines of this peptide of 2470.
Then B34, with 137; and B35, with 67.7.
As for B36, the figure is 100; as for B37, 91.7.
Regarding B38, the normalised SPOT signal, Boehringer light units (BLU); mean over the file's lines of this peptide was found to be 21.1.
As for B39, the figure is 82.1; as for B40, 1030; as for B41, 15.7.
As for B42, the figure is 172.
Then B43, with 91.3.
Take B44: the normalised SPOT signal, Boehringer light units (BLU); mean over the file's lines of this peptide was determined as 114.
As for B45, the figure is 434; as for B46, 38.6.
Then B47, with 126; and B48, with 73.
Then B49, with 2420; and B50, with 153.
B51: the normalised SPOT signal, Boehringer light units (BLU); mean over the file's lines of this peptide was 74.7.
As for B52, the figure is 50.
As for B53, the figure is 43.2; as for B54, 76.3.
